Experimental data from article PMC6938348 (PLoS ONE, 2019).

Columns and labels:
[1] = target: T1, soluble Her2 ectodomain (Homo sapiens (assumed; species and …, UniProt P04626); assay: SPR; antibody captured on an anti-hFc CM-5 surface, soluble Her2 ectodomain flowed (monovalent binding); single cycle kinetics in duplicate, 25°C, PBS with 3.4 mM EDTA and 0.05% Tween 20; 1:1 binding model; Biacore T200; conditions: both partners purified
T1 construct: Her2 ectodomain, soluble

[2] = target: T2, Her2 on cells (SKOV3, JIMT-1, MCF7) (Homo sapiens (endogenous in SKOV3, …, UniProt P04626)); assay: cell-based or functional assay
[3] = target: T2, Her2 on cells (SKOV3, JIMT-1, MCF7); assay: cell-based or functional assay; remark: listed apart in the source
[4] = target: T2, Her2 on cells (SKOV3, JIMT-1, MCF7); assay: flow cytometry on cells; saturation binding of full-size antibodies on live low-Her2 MCF7 cells, 4°C 2 h, 0 to 200 nM or 1 μM, washed, anti-human Fc AlexaFluor488-(Fab')2 detection; apparent KD; conditions: one partner purified
[5] = target: T1, soluble Her2 ectodomain; assay: SPR; antibody captured on an anti-hFc CM-5 surface, soluble Her2 ectodomain flowed (monovalent binding); single cycle kinetics in duplicate, 25°C, PBS with 3.4 mM EDTA and 0.05% Tween 20; 1:1 binding model; Biacore T200; conditions: both partners purified; remark: listed apart in the source
[6] = target: T2, Her2 on cells (SKOV3, JIMT-1, MCF7); assay: flow cytometry on cells; saturation binding of full-size antibodies on live high-Her2 SKOV3 cells, 4°C 2 h, 0 to 200 nM or 1 μM, washed, anti-human Fc AlexaFluor488-(Fab')2 detection; apparent KD; conditions: one partner purified

B1: bH1 full-size antibody (Parent 2) (antibody, V domains shown)
VH: not shown
VL: DIQMTQSPSSLSASVGDRVTITCRASQDIPRSISGYVAWYQQKPGKAPKLLIYWGSYLYSGVPSRFSGSGSGTDFTLTISSLQPEDFATYYCQQHYTTPPTFGQGTKVEIK
notes: heavy chain of bH1 (Parent 2) as full-size human IgG; light chain of bH1 (Parent 2), a Herceptin variant with a 4-residue insertion in CDR-L1 and a few point mutations; FSA; IgG1 is surmised (Synagis is called the IgG1 isotype control); also called 2–13; source: CHO-3E7, co-transfected, purified (MabSelect Sure); copies: 2 + 2
- koff [1]: 0.000741 s⁻¹
- kon [1]: 100000 M⁻¹ s⁻¹
- IC50 of cytotoxicity, antibody directly conjugated to DM1, SKOV3 cells [2]: 0.075 nM
- IC50 of cytotoxicity, antibody directly conjugated to PNU, JIMT1 cells [2]: 0.5 nM
- IC50 of cytotoxicity, antibody directly conjugated to PNU, MCF7 cells [2]: 2.02 nM
- IC50 of cytotoxicity, antibody directly conjugated to PNU, SKOV3 cells [2]: 0.077 nM
- IC50 of cytotoxicity, indirect ADC screen (DM1-conjugated secondary antibody), JIMT1 cells [3]: 7.4 nM
- IC50 of cytotoxicity, indirect ADC screen (DM1-conjugated secondary antibody), MCF7 cells [3]: 8.2 nM
- IC50 of cytotoxicity, indirect ADC screen (DM1-conjugated secondary antibody), SKOV3 cells [3]: 0.021 nM
- IC50 of cytotoxicity, indirect ADC screen (MMAE-conjugated secondary antibody), JIMT1 cells [3]: 10.3 nM
- IC50 of cytotoxicity, indirect ADC screen (MMAE-conjugated secondary antibody), MCF7 cells [3]: 35.6 nM
- IC50 of cytotoxicity, indirect ADC screen (MMAE-conjugated secondary antibody), SKOV3 cells [3]: 0.078 nM
- Kd [4]: 0.87 nM
- Kd [5]: 14.7 nM
- Kd [6]: 2.41 nM
